Results taken from patent US20250066477A1 (INHIBRX BIOSCIENCES, published 2025).

T1: CD20 on Raji cells (UniProt P11836 1-297, limits assumed)
T1 construct: whole, on cells
T1 sequence (looked up): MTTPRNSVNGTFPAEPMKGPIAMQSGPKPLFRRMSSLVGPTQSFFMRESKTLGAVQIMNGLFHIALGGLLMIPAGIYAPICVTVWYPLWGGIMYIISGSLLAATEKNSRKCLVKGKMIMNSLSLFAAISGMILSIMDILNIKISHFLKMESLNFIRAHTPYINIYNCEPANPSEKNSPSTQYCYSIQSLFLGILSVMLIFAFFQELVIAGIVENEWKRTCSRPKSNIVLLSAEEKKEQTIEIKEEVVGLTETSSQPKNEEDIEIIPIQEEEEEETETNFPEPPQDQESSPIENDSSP


Assays:
[1] = biological target: T1, CD20 on Raji cells; test: flow cytometry on CD20-expressing Raji cells, anti-human Fcγ A647
Procedure: (§1) The binding activity of a bispecific γδ TCR molecule that binds γδTCR and the representative target antigen CD20 (γδTCR×CD20) comprising anti-γδ VHH domain 1D7v9, an anti-CD20 VHH domain and a heterodimeric knob-in-hole Fc region (cx11498) was assessed by flow cytometry on Raji target cells expressing CD20 and Vγ9Vδ2 T cells. PBMCs and Raji cells were thawed and resuspended to 1.0×10\hat{ }6 cells/ml in FACS buffer. 100,000 PBMCs or Raji cells were seeded in a 96-well plate. Test articles were added at a final starting concentration of 50 nM and titrated across the plate 1:4. Cells were incubated with the antibody for 30 minutes at 4 C, spun down, and washed four times with FACS buffer. Cells were labeled with anti-human Fcγ-A647 (Jackson ImmunoResearch) and PBMCs were also labeled with anti-human δ TCR-FITC (Biolegend) in 50 uL of FACS for 30 minutes at 4 C. The plate was washed twice with FACS buffer, resuspended in FACS buffer and read on the IQue flow cytometer. The mean fluorescent intensity for anti-human Fcγ-A647 was calculated using onboard software and graphed using Graphpad Prism. The γδ TCR×antigen molecule bound to both antigen (CD20) expressing Raji cells (FIG. 7A) and V 9Vδ2 T cells (FIG. 7B) in a titration dependent manner.

[2] = biological target: T2, human γδ TCR (Vγ9Vδ2) on human γδ T cells (human); test: flow cytometry on human PBMC gated on γδ TCR+ (Vγ9Vδ2) T cells, anti-human Fcγ A647
T2 construct: whole, on cells; also called Vδ2+ γδ T cells; Vγ9Vδ2 T cells
T2 sequence (main, as listed by the source): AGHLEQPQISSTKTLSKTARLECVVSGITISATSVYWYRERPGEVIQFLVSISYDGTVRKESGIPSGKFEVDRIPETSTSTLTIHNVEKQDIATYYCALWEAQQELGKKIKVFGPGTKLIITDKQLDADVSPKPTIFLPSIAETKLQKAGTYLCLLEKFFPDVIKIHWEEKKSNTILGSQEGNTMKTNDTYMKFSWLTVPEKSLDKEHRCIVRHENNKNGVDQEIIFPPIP
Procedure: as §1

[3] = biological target: T3, CD33 on MOLM-13 and MV-411 cells (UniProt P20138 18-364, limits assumed); test: flow cytometry on CD33-expressing MOLM-13 cells, anti-human A647
T3 construct: whole, on cells
T3 sequence (P20138 18-364 limits assumed): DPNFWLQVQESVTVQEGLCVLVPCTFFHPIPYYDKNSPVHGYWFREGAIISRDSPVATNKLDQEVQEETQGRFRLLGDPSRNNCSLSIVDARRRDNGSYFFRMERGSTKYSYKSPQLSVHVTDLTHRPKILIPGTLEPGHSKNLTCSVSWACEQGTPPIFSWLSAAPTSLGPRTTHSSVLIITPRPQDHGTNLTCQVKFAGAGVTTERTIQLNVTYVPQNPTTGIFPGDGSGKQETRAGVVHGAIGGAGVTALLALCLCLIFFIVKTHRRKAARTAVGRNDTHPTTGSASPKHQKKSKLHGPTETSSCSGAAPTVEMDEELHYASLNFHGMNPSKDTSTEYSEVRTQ
Procedure: (§2) A monospecific CD33 construct comprising an irrelevant second VHH domain instead of a γδTCR VHH domain (CD33×UT; cx12056) was also tested. Briefly, frozen PCMCs (previously treated with zoledronate to expand γδ T cells) were thawed and washed twice using 1×CTL thawing reagent in assay media. Cells were resuspended to 1×10\hat{ }6 cells/mL in FACs buffer and plated on a 96 well plate (100,000 cells/well). The test articles were added in 50 uL to each well at 4× the final starting concentration of 200 nM and titrated 1:4 across. 50 uL of FACS buffer was added for the final total volume of 200 uL. Cells were incubated with the test article at 4 C for 30 minutes, washed three times, and stained with Vd2-PE, CD3-BV785, and anti-human-A647 antibodies in FACS buffer for 30 minutes at 4 C. The cells were then washed 2× with FACS buffer, resuspended in 70 ul of FACS buffer and read on a Novocyte. All the molecules bound to CD33 expressing MOLM-13 (FIG. 8A) and MV4-11 (FIG. 8B) cells in a titration dependent manner. However, only the bispecific γδTCR×CD33 molecule bound to V 9Vδ2 T cells (FIG. 8C) in a titration dependent manner.

[4] = biological target: T2, human γδ TCR (Vγ9Vδ2) on human γδ T …; test: flow cytometry on zoledronate-expanded human PBMC gated on Vδ2+ cells, anti-human A647
Procedure: as §2

| EC50 (read off the curve) [1] | EC50 (read off the curve) [2] | binding result [3] | EC50 (read off the curve) [4] | Binder |
| --- | --- | --- | --- | --- |
| ~5 nM | ~2 nM |  |  | cx11498, γδTCR×CD20 bispecific polypeptide (1D7v9 VHH-Fc hole / anti-CD20 VHH-Fc knob) (bispecific antibody, V domains shown, also called γδ TCRxCD20; anti-CD20×Vγ9-1D7v9) V domain 1: EVQLLESGGGEVQPGGSLRLSCVASRGKISQYRMGWYRQAPGKELEWVAHISNTGDAAEYVDSVKGRFTISRDSTKNAVYLQMSSLRAEDTAVYKCNSVEDILAWGQGTLVTVKP V domain 2: QVQLQESGGGLVQPGGSLRLSCAASGRTFSMGWFRQAPRKEREFVAAITYSGGSPYYASSVRGRFTISRDNAKNTVYLQMNSLKPEDTAVYYCAARLTYGSTWSAENWGQGTQVTVKP |
|  |  | binds | ~20 nM | cx12083, γδTCR×CD33 bispecific polypeptide (anti-CD33 VHH-Fc knob / 1D7v9 VHH-Fc hole) (bispecific antibody, V domains shown, also called γδ TCRxCD33; CD33×1D7v9) V domain 1: EVQLVESGGGEVQPGGSLRLSCAASRSSGIDVMGWYRQAPGKERELVAEISGVGDTNYAASLADRFTVSRDNAKNTVYLQMSSLRAEDTAVYYCNAHSFLDLVGAWGQGTLVTVKP V domain 2: EVQLLESGGGEVQPGGSLRLSCVASRGKISQYRMGWYRQAPGKELEWVAHISNTGDAAEYVDSVKGRFTISRDSTKNAVYLQMSSLRAEDTAVYKCNSVEDILAWGQGTLVTVKP |
|  |  | binds |  | cx12056, CD33×UT (untargeted) monospecific CD33 construct (anti-CD33 VHH-Fc knob / 4GFTv1 VHH-Fc hole) (Fc fusion, also called CD33 x UT) chain 1: EVQLVESGGGEVQPGGSLRLSCAASRSSGIDVMGWYRQAPGKERELVAEISGVGDTNYAASLADRFTVSRDNAKNTVYLQMSSLRAEDTAVYYCNAHSFLDLVGAWGQGTLVTVKPGGGGDKTHTCPPCPAPGGPSVFLFPPKPKDTLMISRTPEVTCVVVDVSHEDPEVKFNWYVDGVEVHNAKTKPREEQYNSTYRVVSVLTVLHQDWLNGKEYKCKVSNKALPAPIEKTISKAKGQPREPQVYTLPPCRDELTKNQVSLWCLVKGFYPSDIAVEWESNGQPENNYKTTPPVLDSDGSFFLYSKLTVDKSRWQQGNVFSCSVMHEALHNHYTQKSLSLSPGK chain 2: EVQLVESGGGEVQPGGSLRLSCSAAPERAFSNYAMGWFRQAPGKGREFVAGITGSGRSQYYAESVKGRFTISRDNAKNTLYLQMSSLRAEDTAVYYCAARVVPVFSESTKGYVYWGQGTLVTVKPGGGGDKTHTCPPCPAPGGPSVFLFPPKPKDTLMISRTPEVTCVVVDVSHEDPEVKFNWYVDGVEVHNAKTKPREEQYNSTYRVVSVLTVLHQDWLNGKEYKCKVSNKALPAPIEKTISKAKGQPREPQVCTLPPSRDELTKNQVSLSCAVKGFYPSDIAVEWESNGQPENNYKTTPPVLDSDGSFFLVSKLTVDKSRWQQGNVFSCSVMHEALHNRYTQKSLSLSPGK |
